Patent US20230220047A1 (NORWEGIAN UNIVERSITY OF SCIENCE AND TECHNOLOGY NTNU, published 2023)
Ends that are not written are not given here.

T1: IRAK4 (endogenous, human) (human, UniProt Q9NWZ3 1-460)
T1 construct: also called interleukin 1 receptor-associated kinase 4
T1 sequence (looked up): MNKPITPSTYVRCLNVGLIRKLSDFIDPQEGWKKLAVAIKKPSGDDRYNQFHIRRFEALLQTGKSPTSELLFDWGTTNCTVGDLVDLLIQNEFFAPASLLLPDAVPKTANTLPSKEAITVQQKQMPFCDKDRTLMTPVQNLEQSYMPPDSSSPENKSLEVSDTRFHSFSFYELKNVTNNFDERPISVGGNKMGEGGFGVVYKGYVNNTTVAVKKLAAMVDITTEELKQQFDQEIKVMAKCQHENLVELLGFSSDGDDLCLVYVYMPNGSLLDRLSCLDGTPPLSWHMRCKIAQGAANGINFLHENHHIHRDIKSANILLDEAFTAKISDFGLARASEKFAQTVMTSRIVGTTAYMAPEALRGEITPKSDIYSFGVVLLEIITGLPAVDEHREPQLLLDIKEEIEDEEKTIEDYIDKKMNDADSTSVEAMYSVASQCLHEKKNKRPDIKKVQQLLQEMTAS

T2: TRAF6 (endogenous, human) (human, UniProt Q9Y4K3 1-522)
T2 sequence (looked up): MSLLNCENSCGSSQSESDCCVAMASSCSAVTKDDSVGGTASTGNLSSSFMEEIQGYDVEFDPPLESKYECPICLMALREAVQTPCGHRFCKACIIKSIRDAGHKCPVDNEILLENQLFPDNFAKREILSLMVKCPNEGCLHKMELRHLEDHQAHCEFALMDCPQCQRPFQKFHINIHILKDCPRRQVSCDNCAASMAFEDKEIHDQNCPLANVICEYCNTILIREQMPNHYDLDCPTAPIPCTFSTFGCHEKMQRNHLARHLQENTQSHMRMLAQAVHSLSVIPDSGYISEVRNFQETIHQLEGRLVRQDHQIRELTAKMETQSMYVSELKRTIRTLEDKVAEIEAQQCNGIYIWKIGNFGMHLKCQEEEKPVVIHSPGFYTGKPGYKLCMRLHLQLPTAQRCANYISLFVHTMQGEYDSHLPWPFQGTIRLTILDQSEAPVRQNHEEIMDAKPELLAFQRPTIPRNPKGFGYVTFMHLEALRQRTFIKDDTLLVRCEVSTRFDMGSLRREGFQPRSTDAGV

T3: IRAK2 (endogenous, human) (human, UniProt O43187 1-625)
T3 sequence (looked up): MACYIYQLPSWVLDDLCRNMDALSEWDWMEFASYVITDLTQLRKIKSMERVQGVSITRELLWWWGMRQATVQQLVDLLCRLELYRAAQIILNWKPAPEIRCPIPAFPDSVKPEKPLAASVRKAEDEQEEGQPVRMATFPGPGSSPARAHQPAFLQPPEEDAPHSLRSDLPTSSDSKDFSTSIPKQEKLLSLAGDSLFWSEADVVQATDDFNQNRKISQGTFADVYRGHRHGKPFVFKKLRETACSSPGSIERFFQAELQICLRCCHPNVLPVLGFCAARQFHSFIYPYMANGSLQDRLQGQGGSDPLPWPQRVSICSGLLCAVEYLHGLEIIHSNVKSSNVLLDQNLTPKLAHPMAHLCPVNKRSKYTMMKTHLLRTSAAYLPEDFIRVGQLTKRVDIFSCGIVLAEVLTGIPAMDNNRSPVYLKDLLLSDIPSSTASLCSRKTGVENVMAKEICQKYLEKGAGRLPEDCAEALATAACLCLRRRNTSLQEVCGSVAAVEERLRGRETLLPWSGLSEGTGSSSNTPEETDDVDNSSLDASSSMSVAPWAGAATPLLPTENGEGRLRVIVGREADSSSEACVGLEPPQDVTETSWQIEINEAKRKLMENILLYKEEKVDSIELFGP

B1: Pep7-Penetratin-biotin (C-terminally biotinylated P7-Pen) (peptide)
peptide: ITVYASVTLTGRQIKIWFQNRRMKWKK-biotin
modifications: not fully specified (N-terminus); also: biotin attachment not given here
notes: Custom synthesis by GenScript; immobilised on NeutrAvidin agarose; also called P7-Pen peptide; biotinylated P7 peptides
B2: SLAMF1 (human, no tag stated; overexpressed in HEK293T cells or endogenous in primary human macrophages) (receptor, UniProt Q13291 21-335, looked up)
chain: ASYGTGGRMMNCPKILRQLGSKVLLPLTYERINKSMNKSIHIVVTMAKSLENSVENKIVSLDPSEAGPPRYLGDRYKFYLENLTLGIRESRKEDEGWYLMTLEKNVSVQRFCLQLRLYEQVSTPEIKVLNKTQENGTCTLILGCTVEKGDHVAYSWSEKAGTHPLNPANSSHLLSLTLGPQHADNIYICTVSNPISNNSQTFSPWPGCRTDPSETKPWAVYAGLLGGVIMILIMVVILQLRRRGKTNHYQTTVEKKSLTIYAQVQKPGPLQKKLDSFPAQDPCTTIYVAATEPVPESVQETNSITVYASVTLPES
notes: Used for SLAMF1 in the TRAM^Flag and Mal^Flag co-precipitations (no tag stated there) and for endogenous SLAMF1 precipitated with anti-SLAMF1 mAb E-11; also called SLAMF1 wt; SLAMF1 protein

Experiments:
Mal (endogenous, human) = target: T4, Mal (endogenous, human) (human, UniProt P58753 1-221, limits assumed); assay: biotinylated peptide on NeutrAvidin beads, lysates of primary human macrophages, Western blot; may be indirect, within a complex
T4 construct: also called Mal/TIRAP; MyD88-adaptor-like protein
T4 sequence (P58753 whole entry): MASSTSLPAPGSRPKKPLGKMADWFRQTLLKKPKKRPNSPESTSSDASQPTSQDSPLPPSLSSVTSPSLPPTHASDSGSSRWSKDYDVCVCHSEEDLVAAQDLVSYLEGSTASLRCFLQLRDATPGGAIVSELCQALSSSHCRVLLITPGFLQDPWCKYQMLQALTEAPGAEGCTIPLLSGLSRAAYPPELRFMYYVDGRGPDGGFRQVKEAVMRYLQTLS
Protocol: (§1) Precipitations were performed using biotinylated peptides on lysates of primary human macrophages stimulated with LPS (100 ng/ml) for 15, 30 or 60 min and unstimulated cells (A), and stimulated with LPS for 30 or 60 min, or CL075/TLR8 ligand for 15 or 30 min (B).
(§2) Immunoprecipitations with the biotinylated peptides Penetratin-biotin and Pep7-Penetratin-biotin (synthesised by custom order by GenScript) were performed by coating NeutrAvidin® Agarose Resin (Thermo Scientific) with peptide by incubating 40 μl 50% agarose slurry with 10 μl 2 mM peptides in 300 μl lysis buffer (for one precipitation reaction) (300 mM NaCl, 50 mM TrisHCl (pH 8.0), 1 mM EDTA, 1% Triton X100). Beads were washed 3 times with lysis buffer to remove unbound peptides before applying cellular extracts. Cell lysis was performed in the same lysis buffer, both for HEK293T cells and primary human macrophages. Precipitations were carried out by rotation at 4° C. for 30′-1 h, followed by four washes with lysis buffer. Agarose resin with precipitated protein complexes was heated in loading buffer 1×NuPAGE® LDS Sample Buffer (Thermo Fisher Scientific) containing 20 mM DTT and analysed by Western blotting.
(§3) To look for interactions between P7 and proteins in the Myddosome complex, biotinylated P7 peptides were pre-incubated with lysates of primary human macrophages (unstimulated and stimulated by LPS or CL075) and NeutrAvidin beads, followed by Western blot analysis of precipitates (FIG. 26). […] Upon stimulation with LPS, the complex of P7-interacting proteins attracted TRAF6 and TAK1 (FIG. 26A).

[1] = target: T1, IRAK4 (endogenous, human); assay: as above
Protocol: as §1, §2, §3

[2] = target: T5, IRAK1 (endogenous, human) (human, UniProt P51617 1-712, limits assumed); assay: as above
T5 construct: SLAMF1 co-precipitated the ubiquitinated/phosphorylated form after LPS stimulation; also called interleukin 1 receptor-associated kinase 1; modified IRAK1
T5 sequence (P51617 whole entry): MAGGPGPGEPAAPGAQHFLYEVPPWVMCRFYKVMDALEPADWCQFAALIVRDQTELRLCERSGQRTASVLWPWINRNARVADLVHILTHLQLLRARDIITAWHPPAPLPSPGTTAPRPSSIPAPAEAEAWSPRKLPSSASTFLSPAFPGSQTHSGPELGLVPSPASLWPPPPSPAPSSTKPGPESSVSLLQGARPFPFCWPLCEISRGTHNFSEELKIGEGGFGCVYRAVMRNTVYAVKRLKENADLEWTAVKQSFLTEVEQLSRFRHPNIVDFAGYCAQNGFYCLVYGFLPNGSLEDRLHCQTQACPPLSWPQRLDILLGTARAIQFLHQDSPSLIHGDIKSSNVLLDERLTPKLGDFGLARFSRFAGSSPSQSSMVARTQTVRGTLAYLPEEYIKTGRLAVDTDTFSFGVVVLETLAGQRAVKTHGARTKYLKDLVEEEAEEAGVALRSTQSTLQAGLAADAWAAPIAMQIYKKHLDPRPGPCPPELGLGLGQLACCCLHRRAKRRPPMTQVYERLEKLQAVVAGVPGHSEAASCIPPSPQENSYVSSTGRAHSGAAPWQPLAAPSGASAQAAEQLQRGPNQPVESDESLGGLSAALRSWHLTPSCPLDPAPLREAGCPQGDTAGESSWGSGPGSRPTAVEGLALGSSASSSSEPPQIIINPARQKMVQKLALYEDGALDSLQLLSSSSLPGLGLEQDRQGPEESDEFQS
Protocol: as §1, §2, §3

[3] = target: T6, MyD88 (endogenous, human) (human, UniProt Q99836 1-296); assay: as above
T6 construct: also called Myeloid Differentiation primary response protein 88
T6 sequence (Q99836 whole entry): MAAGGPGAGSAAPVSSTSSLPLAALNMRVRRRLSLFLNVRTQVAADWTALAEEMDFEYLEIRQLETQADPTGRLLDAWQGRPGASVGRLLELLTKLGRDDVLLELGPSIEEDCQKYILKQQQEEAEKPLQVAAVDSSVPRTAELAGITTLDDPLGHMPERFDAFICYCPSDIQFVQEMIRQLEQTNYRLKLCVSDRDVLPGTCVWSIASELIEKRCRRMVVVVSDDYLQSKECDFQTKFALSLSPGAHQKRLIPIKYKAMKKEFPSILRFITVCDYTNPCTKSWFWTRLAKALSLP
Protocol: as §1, §2, §3

[4] = target: T7, human TRAM (endogenous in primary human macrophages, or overexpressed in HEK 293T cells) (human, UniProt Q86XR7 2-235, limits assumed); assay: C-terminally biotinylated peptide on Neutravidin agarose, lysates of HEK 293T cells overexpressing TRAM
T7 construct: also called TICAM2
T7 sequence (Q86XR7 2-235 limits assumed): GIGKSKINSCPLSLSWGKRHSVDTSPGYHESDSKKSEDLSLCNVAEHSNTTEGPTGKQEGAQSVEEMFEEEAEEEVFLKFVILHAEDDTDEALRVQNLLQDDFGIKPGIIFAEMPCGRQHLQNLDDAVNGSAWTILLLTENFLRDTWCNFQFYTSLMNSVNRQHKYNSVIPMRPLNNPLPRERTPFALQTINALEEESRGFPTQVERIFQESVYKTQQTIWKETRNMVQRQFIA
Protocol: as §2
(§4) Murine disease models are the most accessible and widely used pre-clinical model for testing new drugs. […] To test the potential interaction of the P7 peptide with murine TRAM vs. human TRAM protein, we performed precipitations of C-terminally biotinylated Pen or P7-Pen peptides.

[5] = target: murine TRAM protein (overexpressed in HEK 293T cells) (murine, UniProt Q8BJQ4 2-232, limits assumed); assay: as above
murine TRAM protein (overexpressed in HEK 293T cells), sequence (Q8BJQ4 2-232 limits assumed): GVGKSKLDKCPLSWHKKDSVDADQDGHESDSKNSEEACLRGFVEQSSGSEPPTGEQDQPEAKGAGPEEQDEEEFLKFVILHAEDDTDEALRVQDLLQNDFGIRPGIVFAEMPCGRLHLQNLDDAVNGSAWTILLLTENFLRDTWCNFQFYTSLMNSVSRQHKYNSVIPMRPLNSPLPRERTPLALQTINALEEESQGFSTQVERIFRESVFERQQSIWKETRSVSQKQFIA
Protocol: as §2, §4

[6] = target: T2, TRAF6 (endogenous, human); assay: biotinylated peptide on NeutrAvidin beads, lysates of LPS-stimulated primary human macrophages, Western blot; within a complex
Protocol: as §1
as §2, with “blotting. […]” for “blotting.”

[7] = target: T3, IRAK2 (endogenous, human); assay: endogenous co-precipitation with anti-SLAMF1 mAb (E-11) on magnetic beads from primary human macrophages, Western blot
Protocol: The SLAMF1 and TRAM interaction was used as a positive control. Primary human macrophages were pre-treated with 15 μM peptides for 30 min, stimulated with LPS for another 15′, 30′ or 1 h, lysed and used for co-precipitation with anti-SLAMF1 mouse mAbs (E-11) covalently bound to magnetic beads, followed by Western blot analysis. Proteins in lysates were analysed as input control.
Indeed, a potential P7-Pen interaction motif is located within the protein kinase domain of IRAK4. Alignment of IRAKs with the TRAM-derived sequence that is targeted by the peptide identified sequences in IRAK1 and IRAK4 that are highly similar to the P7-interacting motif in TRAM/TICAM2 (not shown). […] IRAK4 also co-precipitated with GST-SLAMF1ct in GST pull down assays from lysates of primary human macrophages (data not shown).

Binder | binding result (Mal (endogenous, human)) | binding result [1] | binding result [2] | binding result [3] | binding result [4] | binding result [5] | binding result [6] | binding result [7]
B1 | binds | binds | binds | binds | binds | binds | binds | 
B2 |  |  |  |  |  |  |  | no binding
